Experimental findings from US20120244615A1 are described below.

The target in this test is tetrodotoxin (TTX)-resistant variant of sodium channel Nav1.6. The experiment in a line: cell-based or functional assay.

Substance “full-length FHF2A protein (from UniProt Q92913 1-245)” returned a channels not recovering from inactivation within 20 msec (two-pulse whole cell voltage clamp, FIG. 2) (fraction of channels) of 0.33 and a percent of channels undergoing long-term inactivation (voltage dependence protocol, FIG. 4) of 35 to 40%.
